Literature values as cited in patent US20220323445A1, “REDUCING IMMUNOGENICITY TO PEGLOTICASE” (Horizon Therapeutics Ireland DAC, priority 2020, published 2022).

Tested on: anti-pegloticase antibodies
Conditions: cited from earlier work

B1: pegloticase (protein)
chain: TYKKNDEVEFVRTGYGKDMIKVLHIQRDGKYHSIKEVATTVQLTLSSKKDYLHGDNSDVIPTDTIKNTVNVLAKFKGIKSIETFAVTICEHFLSSFKHVIRAQVYVEEVPWKRFEKNGVKHVHAFIYTPTGTHFCEVEQIRNGPPVIHSGIKDLKVLKTTQSGFEGFIKDQFTTLPEVKDRCFATQVYCKWRYHQGRDVDFEATWDTVRSIVLQKFAGPYDKGEYSPSVQKTLYDIQVLTLGQVPEIEDMEISLPNIHYLNIDMSKMGLINKEEVLLPLDNPYGKITGTVKRKLSSRL
modifications: monomethoxy PEG conjugated; Krystexxa Sequence
notes: covalent conjugate of uricase produced by a genetically modified strain of Escherichia coli and monomethoxypoly (ethylene glycol)
In the case of B1, the “patients with antibody titer exceeding 1:2430 at any time who maintained a response” value (7 of 65 patients) is given as 10.8%, the “patients with antibody titers exceeding 1:2430 who developed IRs” value (31 of 52 patients) is given as 60% and the “patients who never had an antibody titer above 1:2430 (comparison for maintained response)” value (58/65) is given as 89.2%. For the same molecule, the “participants with high antibody titers who maintained a response (serum urate <6 mg/dL)” value (second study) was 1 of 52 participants.
